Reference: US20200354411A1, “Chimeric Molecule for Targeting c-Myc in Cells” (priority 2017, published 2020)

Biological target: c-Myc (UniProt P01106)
Assay: cell-based or functional assay

Chain of c-Myc (P01106 whole entry): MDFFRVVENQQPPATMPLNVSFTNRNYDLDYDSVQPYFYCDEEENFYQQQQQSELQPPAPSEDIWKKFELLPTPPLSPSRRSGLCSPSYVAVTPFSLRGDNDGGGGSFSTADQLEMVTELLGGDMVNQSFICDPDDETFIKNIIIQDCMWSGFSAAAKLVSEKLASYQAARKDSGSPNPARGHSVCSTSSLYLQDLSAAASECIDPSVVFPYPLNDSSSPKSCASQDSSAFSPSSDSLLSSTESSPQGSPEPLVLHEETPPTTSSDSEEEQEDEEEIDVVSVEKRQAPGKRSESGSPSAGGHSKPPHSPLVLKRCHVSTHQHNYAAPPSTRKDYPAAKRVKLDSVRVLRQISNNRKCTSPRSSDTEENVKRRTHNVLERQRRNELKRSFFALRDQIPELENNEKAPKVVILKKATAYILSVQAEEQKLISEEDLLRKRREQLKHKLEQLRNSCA

Row | decrease in Myc reporter activity at 150 µM | luciferase controlled by E-Box, A431 cells, 6 hours | decrease in Myc reporter activity at 400 µM | Substance
1 | < 75% | 75 µM | – | CAD-H1 (Cadherin cell targeting peptide fused to H1)
2 | – | 200 µM | < 75% | Int-H1 (Antenapedia cell targeting peptide fused to H1)

Row | Substance | decrease in Myc reporter activity at 150 µM | luciferase controlled by E-Box, A431 cells, 6 hours | decrease in Myc reporter activity at 400 µM
3 | Tat-H1 (TAT cell targeting peptide fused to H1) | – | 500 µM | –
